Test results: publication PMC7337490

T1: GFP-MKLP2 WT (human), O95235
T1 chain: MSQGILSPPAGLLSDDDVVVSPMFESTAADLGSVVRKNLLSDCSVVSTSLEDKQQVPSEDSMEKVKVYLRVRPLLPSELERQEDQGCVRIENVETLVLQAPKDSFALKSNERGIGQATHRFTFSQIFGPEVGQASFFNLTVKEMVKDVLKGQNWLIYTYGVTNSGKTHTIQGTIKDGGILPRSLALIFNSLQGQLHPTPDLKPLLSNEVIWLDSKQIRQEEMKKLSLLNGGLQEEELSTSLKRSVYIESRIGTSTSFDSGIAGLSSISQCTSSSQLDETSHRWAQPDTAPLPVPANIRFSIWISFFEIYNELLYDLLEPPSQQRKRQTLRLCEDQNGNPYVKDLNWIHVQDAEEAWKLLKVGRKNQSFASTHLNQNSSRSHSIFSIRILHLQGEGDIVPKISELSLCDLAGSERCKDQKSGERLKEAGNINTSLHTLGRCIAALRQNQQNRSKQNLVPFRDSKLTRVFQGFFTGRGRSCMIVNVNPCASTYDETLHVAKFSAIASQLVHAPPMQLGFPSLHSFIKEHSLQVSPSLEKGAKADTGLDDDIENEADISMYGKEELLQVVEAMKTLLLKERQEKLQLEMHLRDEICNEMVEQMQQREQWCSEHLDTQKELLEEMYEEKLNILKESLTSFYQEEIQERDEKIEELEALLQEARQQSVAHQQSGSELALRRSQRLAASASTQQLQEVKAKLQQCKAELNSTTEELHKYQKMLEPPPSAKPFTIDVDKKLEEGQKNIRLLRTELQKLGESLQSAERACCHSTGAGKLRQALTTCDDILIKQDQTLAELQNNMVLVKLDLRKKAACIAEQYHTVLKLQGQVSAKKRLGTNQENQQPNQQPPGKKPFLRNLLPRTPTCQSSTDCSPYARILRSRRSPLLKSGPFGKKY

T2: MKLP2 (endogenous) (human (endogenous in HeLa)), O95235
T2 chain: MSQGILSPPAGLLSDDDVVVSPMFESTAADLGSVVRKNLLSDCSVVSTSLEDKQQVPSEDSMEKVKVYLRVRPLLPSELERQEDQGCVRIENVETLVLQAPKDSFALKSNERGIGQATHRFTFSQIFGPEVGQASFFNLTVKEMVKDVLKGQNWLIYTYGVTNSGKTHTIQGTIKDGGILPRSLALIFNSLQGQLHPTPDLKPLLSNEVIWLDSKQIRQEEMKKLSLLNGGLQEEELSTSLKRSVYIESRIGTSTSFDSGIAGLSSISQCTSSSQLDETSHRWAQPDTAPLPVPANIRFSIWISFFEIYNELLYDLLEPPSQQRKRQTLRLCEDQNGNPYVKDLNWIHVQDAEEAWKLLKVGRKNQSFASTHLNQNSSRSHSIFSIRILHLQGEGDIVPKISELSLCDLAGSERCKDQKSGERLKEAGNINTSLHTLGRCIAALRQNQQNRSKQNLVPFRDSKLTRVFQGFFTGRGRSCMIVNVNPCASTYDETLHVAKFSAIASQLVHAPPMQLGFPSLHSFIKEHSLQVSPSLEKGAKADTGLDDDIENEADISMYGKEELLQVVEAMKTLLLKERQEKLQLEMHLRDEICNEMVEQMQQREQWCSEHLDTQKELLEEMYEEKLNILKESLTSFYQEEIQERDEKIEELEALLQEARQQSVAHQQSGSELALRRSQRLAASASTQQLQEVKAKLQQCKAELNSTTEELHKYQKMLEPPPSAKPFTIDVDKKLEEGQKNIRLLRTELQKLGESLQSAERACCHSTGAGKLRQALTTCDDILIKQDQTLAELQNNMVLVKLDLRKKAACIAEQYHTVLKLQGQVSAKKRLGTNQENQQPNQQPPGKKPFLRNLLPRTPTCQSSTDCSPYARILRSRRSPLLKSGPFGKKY


How the values were obtained:
[1] = molecular target: T1, GFP-MKLP2 WT (human), O95235; test: SEC; 1 mg lysate of nocodazole-arrested HeLa cells on Superose 6 10/300 at 4°C; fractions Western blotted for MKLP2 and GFP; size from calibration standards; details: remark: other sources report otherwise
[2] = molecular target: T2, MKLP2 (endogenous) (human (endogenous …)); test: as above; details: remark: other sources report otherwise

stoichiometry N [1]	stoichiometry N [2]	Binder
2	–	GFP-MKLP2 WT, O95235 1-890 (natural protein) MSQGILSPPAGLLSDDDVVVSPMFESTAADLGSVVRKNLLSDCSVVSTSLEDKQQVPSEDSMEKVKVYLRVRPLLPSELERQEDQGCVRIENVETLVLQAPKDSFALKSNERGIGQATHRFTFSQIFGPEVGQASFFNLTVKEMVKDVLKGQNWLIYTYGVTNSGKTHTIQGTIKDGGILPRSLALIFNSLQGQLHPTPDLKPLLSNEVIWLDSKQIRQEEMKKLSLLNGGLQEEELSTSLKRSVYIESRIGTSTSFDSGIAGLSSISQCTSSSQLDETSHRWAQPDTAPLPVPANIRFSIWISFFEIYNELLYDLLEPPSQQRKRQTLRLCEDQNGNPYVKDLNWIHVQDAEEAWKLLKVGRKNQSFASTHLNQNSSRSHSIFSIRILHLQGEGDIVPKISELSLCDLAGSERCKDQKSGERLKEAGNINTSLHTLGRCIAALRQNQQNRSKQNLVPFRDSKLTRVFQGFFTGRGRSCMIVNVNPCASTYDETLHVAKFSAIASQLVHAPPMQLGFPSLHSFIKEHSLQVSPSLEKGAKADTGLDDDIENEADISMYGKEELLQVVEAMKTLLLKERQEKLQLEMHLRDEICNEMVEQMQQREQWCSEHLDTQKELLEEMYEEKLNILKESLTSFYQEEIQERDEKIEELEALLQEARQQSVAHQQSGSELALRRSQRLAASASTQQLQEVKAKLQQCKAELNSTTEELHKYQKMLEPPPSAKPFTIDVDKKLEEGQKNIRLLRTELQKLGESLQSAERACCHSTGAGKLRQALTTCDDILIKQDQTLAELQNNMVLVKLDLRKKAACIAEQYHTVLKLQGQVSAKKRLGTNQENQQPNQQPPGKKPFLRNLLPRTPTCQSSTDCSPYARILRSRRSPLLKSGPFGKKY
–	2	MKLP2 (endogenous), O95235 1-890 (natural protein) MSQGILSPPAGLLSDDDVVVSPMFESTAADLGSVVRKNLLSDCSVVSTSLEDKQQVPSEDSMEKVKVYLRVRPLLPSELERQEDQGCVRIENVETLVLQAPKDSFALKSNERGIGQATHRFTFSQIFGPEVGQASFFNLTVKEMVKDVLKGQNWLIYTYGVTNSGKTHTIQGTIKDGGILPRSLALIFNSLQGQLHPTPDLKPLLSNEVIWLDSKQIRQEEMKKLSLLNGGLQEEELSTSLKRSVYIESRIGTSTSFDSGIAGLSSISQCTSSSQLDETSHRWAQPDTAPLPVPANIRFSIWISFFEIYNELLYDLLEPPSQQRKRQTLRLCEDQNGNPYVKDLNWIHVQDAEEAWKLLKVGRKNQSFASTHLNQNSSRSHSIFSIRILHLQGEGDIVPKISELSLCDLAGSERCKDQKSGERLKEAGNINTSLHTLGRCIAALRQNQQNRSKQNLVPFRDSKLTRVFQGFFTGRGRSCMIVNVNPCASTYDETLHVAKFSAIASQLVHAPPMQLGFPSLHSFIKEHSLQVSPSLEKGAKADTGLDDDIENEADISMYGKEELLQVVEAMKTLLLKERQEKLQLEMHLRDEICNEMVEQMQQREQWCSEHLDTQKELLEEMYEEKLNILKESLTSFYQEEIQERDEKIEELEALLQEARQQSVAHQQSGSELALRRSQRLAASASTQQLQEVKAKLQQCKAELNSTTEELHKYQKMLEPPPSAKPFTIDVDKKLEEGQKNIRLLRTELQKLGESLQSAERACCHSTGAGKLRQALTTCDDILIKQDQTLAELQNNMVLVKLDLRKKAACIAEQYHTVLKLQGQVSAKKRLGTNQENQQPNQQPPGKKPFLRNLLPRTPTCQSSTDCSPYARILRSRRSPLLKSGPFGKKY
